This test deals with T1, Norrin (Norrie Disease Protein), recombinant wild-type after removal of the SUMO fusion tag (human), Q00604.
T1 chain: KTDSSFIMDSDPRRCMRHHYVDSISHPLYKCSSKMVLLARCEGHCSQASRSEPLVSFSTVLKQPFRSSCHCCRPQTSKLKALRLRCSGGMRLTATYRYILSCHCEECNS
Kind of test: SAXS; Norrin at 0.75 and 1.26 mg/ml in 10 mM HEPES, pH 7.5, 0.7 M NaCl, 0.5% CHAPS; 293 K. Conditions: remark: other sources report otherwise.

Experimental findings from PMC4497409 are described below.

The term stoichiometry N denotes a count of units in the complex or per binding partner.

B1: Norrin (Norrie Disease Protein), recombinant wild-type after removal of the SUMO fusion tag, Q00604 25-133 (ligand)
chain: T1 chain
In the case of B1, the stoichiometry N was found to be 2.
